Results: publication PMC4267727

Target: E2 wild-type (E2wt) scaffold protein without an HIV-1 N-terminal fusion (Geobacillus stearothermophilus)
Experiment: SEC; Superdex200 gel filtration of E2wt in Solubility Buffer 2.2 (1x PBS, 50 mM L-Glutamine, 50 mM NaCl, 250 mM L-Arginine), 1 ml/min

Substance: E2 wild-type (E2wt) scaffold protein without an HIV-1 N-terminal fusion (domain or fragment)
- stoichiometry N: 60
